Measured values taken from patent publication US20250387497A1, “MULTIVALENT MULTISPECIFIC CONJUGATES AND RELATED COMPOSITIONS AND METHODS OF USE” (Purdue Research Foundation, priority 2022, published 2025).

B1: FCGDGFYACYMDVGRAQGKAQGYHWYGYTPQNVIGQAKGQARGVSPPLTLGQLLSG KQAGRQAGKLAKLAKKLAKLAKGQRAGQKAG (peptide)
chain: FCGDGFYACYMDVGRAQGKAQGYHWYGYTPQNVIGQAKGQARGVSPPLTLGQLLSGKQAGRQAGKLAKLAKKLAKLAKGQRAGQKAG
modifications: HA tag; MV-MS conjugate; P2 conjugate sequence: H-E-F-I
B2: YHWYGYTPQNVIGRAQGKAQGKLAKLAKKLAKLAKGQAKGQARGFCGDGFYACY MDVGKQAGRQAGVSPPLTLGQLLSGQRAGQKAG (peptide)
chain: YHWYGYTPQNVIGRAQGKAQGKLAKLAKKLAKLAKGQAKGQARGFCGDGFYACYMDVGKQAGRQAGVSPPLTLGQLLSGQRAGQKAG
modifications: HA tag; MV-MS conjugate; P1 conjugate sequence: E-I-H-F

How the values were obtained:
[1] = system: T24 cells; assay: Binding and internalization of P1/P2 peptides, anti-HA immunofluorescence, T24 cells; assay type: cell-based; settings: human T24 cells
Source text: (§1) Arrows and arrowheads point to examples of internalized peptide in endosomal and late compartments, respectively.
(§2) The tested conjugates targeted bladder cancer cells and were internalized. See Coon et al. (2012), supra, for description of methodologies. See, e.g., FIGS. 3D and 3E. Given interspecies receptor conservation, the conjugates targeted cells of human, mouse and canine origin (FIG. 3D), and were internalized in GFP-Rab5-positive endosomes (see, e.g., FIG. 3D, mid-panel set) in a time-dependent manner (FIG. 3E).

[2] = system: cells isolated from spontaneous dog tumors and immortalized; assay: Binding and internalization of P1/P2 peptides, anti-HA immunofluorescence, canine bladder tumor cells; assay type: cell-based
Source text: as §1, §2

[3] = system: MB49 cells; assay: Binding and internalization of P1/P2 peptides, anti-HA immunofluorescence, MB49 cells; assay type: cell-based; settings: mouse MB49 cells (LE and WT)
Method: as §1
After five minutes, internalized peptide was localized to peripheral early endosomes (arrowheads) and after 45 minutes accumulated in late endosomes/lysosomes (arrows).
FIGS. 3F-3G show the amount of cell-associated peptide as a function of time as estimated by quantitative microscopy (FIG. 3F) and as a function of dose by quantitative Western blot (FIG. 3G) with anti-HA antibodies (upper panel) followed by band densitometry of triplicates (lower panel).
as §2

[4] = system: normal urothelium; assay: P2 binding/uptake in cultured normal urothelium cells, anti-HA immunostaining; assay type: cell-based; settings: different P2 concentrations
Method: (§3) FIGS. 4A and 4B show images of immunostaining with an anti-HA antibody of normal (FIG. 4A) and MB49 wild type cancer (FIG. 4B) cells incubated with the highest concentration of P2 conjugates used.
(§4) Normal (labeled A) and MB49 wild type cancer (labeled B) cells isolated from bladder urothelium were disaggregated and cultured in vitro. Cultured cells were incubated with different concentrations of the P2 MV-MS conjugate and the presence of cell-bound peptide was investigated by immunostaining with an anti-HA antibody using the methodologies described in Example 1.

[5] = system: MB49 wild type cancer cells; assay: P2 binding in cultured MB49 wild type cancer cells, anti-HA immunostaining; assay type: cell-based, mouse; settings: MB49 wild type cancer cells versus normal urothelium cells
Method: as §3, §4

Molecule	binding and internalization of peptide [1]	binding and internalization of peptide [2]	binding and internalization of peptide [3]	binding or uptake to normal urothelium [4]	selectivity for cancer cells [5]
B1	bound and internalized	bound and internalized	bound and internalized	no detectable binding or uptake	marked selectivity for cancer cells
B2	bound and internalized	bound and internalized	bound and internalized		
